{"source": "patent US20030049699A1", "about": "(published 2003)", "binders": {"B1": {"name": "TA-C-fibulin2 (C-terminal part of murine fibulin 2, amino acids 863 to 1195, fused with the transcription activating domain of Gal4) (other, not shown: large carriers)", "chain": "EGSECVDVNECETGVHRCGEGQLCYNLPGSYRCDCKPGFQRDAFGRTCIDVNECWVSPGRLCQHTCENTPGSYRCSCAAGFLLAADGKHCEDVNECETRRCSQECANIYGSYQCYCRQGYQLAEDGHTCTDIDECAQGAGILCTFRCVNVPGSYQCACPEQGYTMMANGRSCKDLDECALGTHNCSEAETCHNIQGSFRCLRFDCPPNYVRVSQTKCERTTCQDITECQTSPARITHYQLNFQTGLLVPAHIFRIGPAPAFAGDTISLTITKGNEEGYFVTRRLNAYTGVVSLQRSVLEPRDFALDVEMKLWRQGSVTTFLAKMYIFFTTFAP", "notes": "also called product of plasmid TA-C-FIB2"}, "B2": {"name": "DB-Fos (fusion protein between the DNA-binding domain of the Gal4 protein and a fragment of the human Fos protein, amino acids 132 to 211) (other, S. cerevisiae;human, UniProt P04386 1-147, looked up)", "chain": "MKLLSSIEQACDICRLKKLKCSKEKPKCAKCLKNNWECRYSPKTKRSPLTRAHLTEVESRLERLEQLFLLIFPREDLDMILKMDSLQDIKALLTGLFVQDNVNKDAVTDRLASVETDMPLTLRQHRISATSSSEESSNKGQRQLTVSLSPEEEEKRRIRRERNKMAAAKCRNRRRELTDTLQAETDQLEDEKSALQTEIANLLKEKEKLEFILAAHRPACKIPDDLG", "notes": "Control fusion in the yeast two-hybrid test; also called DE-Fos; pPC76 product"}, "B3": {"name": "TA-C-mbp1 (C-terminal part of murine MBP1 fused with the transcription activating domain of Gal4) (other, not shown: large carriers)", "chain": "CTCPDGYRKIGPECVDIDECRYRYCQHRCVNLPGSFRCQCEPGFQLGPNNRSCVDVNECDMGAPCEQRCFNSYGTFLCRCNQGYELHRDGFSCSDIDECGYSSYLCQYRCVNEPGRFSCHCPQGYQLLATRLCQDIDECETGAHQCSEAQTCVNFHGGYRCVDTNRCVEPYVQVSDNRCLCPASNPLCREQPSSIVHRYMSITSERSVPADVFQIQATSVYPGAYNAFQIRSGNTQGDFYIRQINNVSAMLVLARPVTGPREYVLDLEMVTMNSLMSYRASSVLRLTVFVGAYTF", "notes": "Library clone from mouse embryo cDNA library pPC67; also called product of plasmid TA-C-MBP1"}}, "key": {"[1]": {"target": "T1, DB-wt (fragment 73-393 of wild-type human p53 fused with the DNA-binding domain of Gal4) (S. cerevisiae; human, UniProt P04386 1-147; P04637 73-393)", "T1 construct": "Yeast two-hybrid fusion; also called 73-393 wt in pPC97", "assay": "yeast two-hybrid, strain YCM17, URA3 and LacZ reporters", "description": "(§1) After the cotransformation, the various clones obtained were tested for the phenotypes associated with the URA3 and LacZ genes."}, "[2]": {"target": "B1", "assay": "yeast two-hybrid, strain YCM17, URA3 and LacZ reporters", "description": "as §1"}, "[3]": {"target": "B3", "assay": "yeast two-hybrid, strain YCM17, URA3 and LacZ reporters", "description": "as §1"}, "[4]": {"target": "T2, DB-C-fibulin2 (C-fibulin2 fused with the DNA-binding domain of Gal4) (S. cerevisiae; murine, UniProt P04386 1-147, limits assumed)", "T2 construct": "also called product of plasmid DB-C-FIB2", "assay": "yeast two-hybrid, strain PCY2, LacZ reporter"}, "[5]": {"target": "T3, DB-C-mbp1 (C-mbp1 fused with the DNA-binding domain of Gal4) (S. cerevisiae; murine, UniProt P04386 1-147)", "T3 construct": "also called DB-C-mbpl; product of plasmid DB-C-MBP1", "assay": "yeast two-hybrid, strain PCY2, LacZ reporter"}, "[6]": {"target": "T4, DB protein (DNA-binding domain of Gal4 alone, plasmid pPC97) (S. cerevisiae, UniProt P04386 1-147)", "T4 construct": "Empty-vector control of the two-hybrid tests", "assay": "yeast two-hybrid, strain YCM17, URA3 and LacZ reporters", "description": "as §1"}, "[7]": {"target": "B2", "assay": "yeast two-hybrid, strain YCM17, URA3 and LacZ reporters", "description": "as §1"}}}
{"binder": "B1", "values": [{"measurement": "binding result", "setting": "[1]", "value": "no binding"}]}
{"binder": "B2", "values": [{"measurement": "binding result", "setting": "[2]", "value": "no binding"}, {"measurement": "binding result", "setting": "[3]", "value": "no binding"}]}
{"binder": "B3", "values": [{"measurement": "binding result", "setting": "[1]", "value": "no binding"}]}
{"binder": "TA (transcription activating domain of Gal4 alone, plasmid pPC86) (other, S. cerevisiae, UniProt P04386 768-881, looked up, Empty-vector control of the two-hybrid tests) ANFNQSGNIADSSLSFTFTNSSNGPNLITTQTNSQALSQPIASSNVHDNFMNNEITASKIDDGNNSKPLSPGWTDQTAYNAFGITTGMFNTTTMDDVYNYLFDDEDTPPNPKKE", "values": [{"measurement": "binding result", "setting": "[4]", "value": "no binding"}, {"measurement": "binding result", "setting": "[5]", "value": "no binding"}, {"measurement": "binding result", "setting": "[1]", "value": "no binding"}, {"measurement": "binding result", "setting": "[6]", "value": "no binding"}, {"measurement": "binding result", "setting": "[7]", "value": "no binding"}]}
